Measurements published in patent US6342368B1, “WD-40-derived peptides and uses thereof” (The Board of Trustees of the Leland Stanford Junior …, priority 1994, dated 2002).
Entries after “also recorded” stand apart in the source; their conditions may differ.

Assays:
βPKC [1] = molecular target: T1, βPKC (Rattus norvegicus, UniProt P68403); experiment: Sensitivity of βPKC to Arg-C endopeptidase (nicking); assay type: biochemical; details: low activators: 2.5 μg/ml PS and 50 μM CaCl2; for nicking of βPKC by Arg-C (78 kDa fragment): peptide 10 μM
T1 construct: All the solutions contained 5 nM rat brain PKC; from tissue; host or cells: rat brain
Excerpt: Upon activation of PKC, a pseudosubstrate autoinhibitory sequence at the N-terminus of the molecule dissociates from the catalytic site and becomes sensitive to endopeptidase Arg-C (Orr, et al.). In the absence of PKC activators, exposure of the 80 kDa βPKC to endopeptidase Arg-C has no effect on the enzyme (see FIG. 7, lane 1). In the presence of the PKC activators PS, DG and calcium, however, exposure of βPKC to Arg-C results in a “nicking” of the PKC (i.e. limited proteolysis generating a 78 kDa fragment and several small fragments (see FIG. 7, lane 2)). Continued exposure to Arg-C results in the disappearance of βPKC (Orr, et al.). The present experiment tests whether peptides derived from the WD-40 region of RACK1 alter the sensitivity of βPKC to endopeptidase Arg-C.
The methods used to assay Arg-C sensitivity are a modification of methods described by Orr, et al. Rat brain PKC (˜5 nM) was incubated at room temperature in 500 μl of 20 mM Tris-HCl buffer (pH 7.5) alone or with Arg-C (5 units/ml) in the presence or absence of the indicated peptides (final concentration 10 μM or as indicated), PS, DG, and calcium (as indicated). 50 μl aliquots were removed into 20 μl of sample buffer during the reaction as indicated (samples in all the lanes were incubated for 30 minutes , except lanes 5, and 6, which were incubated for 5 and 15 minutes, respectively). The samples were boiled for 10 minutes at 80° C. and loaded onto 8% SDS-PAGE. βPKC was detected by Western blot analysis using anti-βPKC antibodies as described in Examples 6 and 8.
PKC was incubated for the indicated time alone (lane 1) or in the presence of Arg-C (lanes 2-9), with DG (0.8 μg/ml), PS (50 μg/ml) and CaCl2 (1 mM; lane 2), with PS (50 μg/ml) and CaCl2 (1 mM; lane 3), with PS (2.5 μg/ml) and CaCl2 (50 μM; lane 4); with PS (2.5 μg/ml), CaCl2 (50 μM) and with either peptide rVI (SEQ ID NO:7; 10 μM; lanes 5-7), control peptide (SEQ ID NO:9; lane 8) or with peptide I (SEQ ID NO:1; lane 9).

βPKC [2] = molecular target: T1, βPKC; experiment: PKC overlay of peptides immobilized on nitrocellulose (slot blot); assay type: binding; details: for binding of activated PKC to immobilized peptide: 5 nM rat brain PKC with PS; for binding of activated PKC to immobilized peptide / lowest peptide amount at which activated PKC bound: DG and calcium; for binding of unactivated PKC to immobilized peptide: 5 nM rat brain PKC without PS, DG, calcium; for lowest peptide amount at which activated PKC bound: PKC with PS, 0.5-10.0 μmole peptide applied
Procedure: The binding of βPKC to peptide I (SEQ ID NO:1), peptide rVI (SEQ ID NO:7) and control peptide (SEQ ID NO:9) was assessed using a PKC overlay assay similar to that described in Example 3. Increasing amounts of peptides (0.5 μmole, 1.0 μmole, 5.0 μmole and 10.0 μmole) suspended in 20 mM NaCl were applied individually onto nitrocellulose using a slot-blot apparatus (Schleicher and Schuell, Keene, N.H.). The nitrocellulose membrane was washed three times, 15 minutes per wash, in peptide overlay buffer and incubated for two hours in peptide overlay block buffer. The membrane was cut into sections and the sections were transferred to different PKC-containing solutions and incubated for 30 minutes at room temperature. All the solutions contained 5 nM rat brain PKC in peptide overlay buffer. Some solutions additionally contained PS, DG, and calcium. The membranes were then washed three times, 15 minutes per wash, in peptide overlay buffer and incubated in peptide overlay block buffer containing anti-βPKC monoclonal antibodies (1:1000 dilution; Seikagaku Kogyo, Tokyo, Japan). After a 16 hr incubation at room temperature, the filters were washed three times, 15 minutes per wash, in peptide overlay buffer.
Binding of PKC was determined using chemiluminescence as described in Example 3, part C. Quantitation of PKC binding was carried out using a “MICRO SCAN” 1000 gel analyzer (Galai Inc., Yokneam, Israel).

Xenopus oocytes = experiment: PKC-mediated Xenopus oocyte maturation (germinal vesicle breakdown, GVBD) after peptide microinjection; assay type: cell-based; details: for dose dependence of effect on GVBD: between 5 μm-500 μM
βPKC [3] = experiment: βPKC translocation (soluble vs particulate fraction) in Xenopus oocytes; assay type: cell-based; details: peptide 50 μM microinjected; for insulin (hormone)-induced βPKC translocation: 60 min after insulin; for βPKC distribution / translocation in the absence of insulin treatment: untreated oocytes, 60 min
Procedure: Insulin causes the translocation of βPKC, but not other PKC isozymes, from a cytosolic form to a membrane-associated form, as evidenced by the relative levels of PKC in the soluble vs. the particulate fraction of oocyte homogenate. To assess the effects of RACK1 WD-40-derived peptides on insulin-induced PKC translocation, 50 nl of a 20 mM NaCl solution containing the indicated peptides were microinjected into Xenopus oocytes. The oocytes were then homogenized, and the relative amount of PKC in the soluble and particulate fractions was assayed. The protocol followed was a modification of a method described by Smith, et al. (1992).
Batches of 50 oocytes were microinjected with either peptide rVI (SEQ ID NO:7; 50 μM; lanes 3, 4), peptide I (SEQ ID NO:1; 50 μM, lanes 7, 8) or injection solution (NaCl 20 mM, lanes 1,2 and 5,6). Homogenates from each batch were prepared 60 minutes after microinjection (lanes 1-4) or 60 minutes after addition of insulin (lanes 5-8). The homogenates were centrifuged at 10,000 g for 3 minutes, the upper layer (containing fat and yolk) was removed, and the remainder was frozen at −70° C. Prior to use, the samples were thawed, 200 μl homogenization buffer was added and the samples were centrifuged at 100,000 g for 30 minutes at 4° C. The supernatants (soluble fraction) were removed and concentrated to 20 μl using “CENTRICON” concentrators (Amicon,Beverly, Mass.). The pellets (particulate fractions) were dissolved in 20 μl of homogenization buffer. The samples were resolved on an 8% SDS/PAGE gel and blotted onto nitrocellulose. The amount of PKC in each fraction was determined by Western blot using anti-βPKC antibodies (1:1000 dilution; Seikagaku Kogyo, Tokyo, Japan). Bound primary antibodies were detected by chemiluminescence as described in Example 3, part C.

[4] = peptide 50 μM alone, no insulin

T1 sequence (P68403 whole entry, the tested form may be a part): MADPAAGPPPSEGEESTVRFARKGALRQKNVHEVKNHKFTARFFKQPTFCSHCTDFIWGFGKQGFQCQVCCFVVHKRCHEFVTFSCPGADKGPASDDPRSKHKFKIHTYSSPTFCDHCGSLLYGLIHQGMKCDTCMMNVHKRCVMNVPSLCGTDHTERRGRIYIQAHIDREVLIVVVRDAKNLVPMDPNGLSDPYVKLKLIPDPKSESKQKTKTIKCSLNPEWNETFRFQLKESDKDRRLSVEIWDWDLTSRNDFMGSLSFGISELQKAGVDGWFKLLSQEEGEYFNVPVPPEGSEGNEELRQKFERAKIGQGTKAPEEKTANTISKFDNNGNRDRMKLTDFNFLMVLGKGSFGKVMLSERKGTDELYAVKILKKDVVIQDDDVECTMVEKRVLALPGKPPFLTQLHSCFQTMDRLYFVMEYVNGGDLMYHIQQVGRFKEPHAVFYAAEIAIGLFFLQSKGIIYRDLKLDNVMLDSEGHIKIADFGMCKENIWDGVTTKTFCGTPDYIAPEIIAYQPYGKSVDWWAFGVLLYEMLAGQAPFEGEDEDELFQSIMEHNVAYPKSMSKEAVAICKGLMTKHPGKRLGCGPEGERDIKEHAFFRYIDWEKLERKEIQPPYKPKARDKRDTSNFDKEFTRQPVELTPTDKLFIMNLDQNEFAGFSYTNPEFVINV

Substance	nicking of βPKC by Arg-C (78 kDa fragment) (βPKC [1])	binding of activated PKC to immobilized peptide (βPKC [2])	binding of unactivated PKC to immobilized peptide (βPKC [2])	lowest peptide amount at which activated PKC bound (βPKC [2])	dose dependence of effect on GVBD (Xenopus oocytes)	insulin (hormone)-induced βPKC translocation (βPKC [3])	βPKC distribution / translocation in the absence of insulin treatment (βPKC [3])	lowest peptide concentration sufficient to result in nicking activity (βPKC [1])	delay to initiation of maturation in the absence of insulin (Xenopus oocytes; [4])	induction of GVBD in the absence of insulin (Xenopus oocytes; [4])	plateau % GVBD in the absence of insulin (Xenopus oocytes; [4])
peptide I: 15-residue peptide homologous to a sequence in the sixth WD-40 repeat of RACK1; PKC antagonist (KGDYEKILVALCGGN)	did not result in appreciable nicking activity; also recorded: did not occur	bound	did not bind	5 µmol	dose-dependent	inhibited hormone-induced translocation; also recorded: inhibited insulin-induced βPKC translocation	did not affect βPKC distribution				
peptide rVI: eight amino acid peptide identical to a segment of RACK1 WD-40 repeat VI (DIINALCF)	time-dependent appearance of the 78 kDa nicked PKC fragment	bound	did bind	5 µmol	dose-dependent	augments hormone-induced translocation	induced βPKC translocation	10 nM	6 to 7 h	induced oocyte maturation; also recorded: induced GVBD	about 50%
